The text below walks through data of patent US20200308299A1 (NATIONAL UNIVERSITY CORPORATION KOCHI UNIVERSITY, published 2020).

The labels stand for the following.
T1: human Glypican-1 (human, UniProt P35052 24-530, limits assumed)
T1 construct: also called human GPC1
T1 sequence: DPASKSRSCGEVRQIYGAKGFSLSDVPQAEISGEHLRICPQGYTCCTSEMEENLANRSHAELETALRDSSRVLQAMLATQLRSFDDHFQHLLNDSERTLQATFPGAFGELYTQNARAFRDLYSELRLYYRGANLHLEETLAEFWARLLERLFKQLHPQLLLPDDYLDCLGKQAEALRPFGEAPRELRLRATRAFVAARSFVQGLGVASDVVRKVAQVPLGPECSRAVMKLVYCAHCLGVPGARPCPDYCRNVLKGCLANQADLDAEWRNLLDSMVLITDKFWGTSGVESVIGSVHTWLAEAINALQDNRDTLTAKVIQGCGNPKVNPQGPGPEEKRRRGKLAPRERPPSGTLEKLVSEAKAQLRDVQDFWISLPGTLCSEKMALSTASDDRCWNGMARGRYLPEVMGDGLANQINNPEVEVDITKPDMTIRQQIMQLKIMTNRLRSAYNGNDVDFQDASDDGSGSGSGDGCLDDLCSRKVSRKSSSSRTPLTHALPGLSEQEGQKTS

T2: recombinant human Glypican-1 protein (R&D Systems, CF, 4519-GP-050) (human, UniProt P35052 24-530)
T2 construct: Bought protein; also called recombinant human GPC1
T2 sequence: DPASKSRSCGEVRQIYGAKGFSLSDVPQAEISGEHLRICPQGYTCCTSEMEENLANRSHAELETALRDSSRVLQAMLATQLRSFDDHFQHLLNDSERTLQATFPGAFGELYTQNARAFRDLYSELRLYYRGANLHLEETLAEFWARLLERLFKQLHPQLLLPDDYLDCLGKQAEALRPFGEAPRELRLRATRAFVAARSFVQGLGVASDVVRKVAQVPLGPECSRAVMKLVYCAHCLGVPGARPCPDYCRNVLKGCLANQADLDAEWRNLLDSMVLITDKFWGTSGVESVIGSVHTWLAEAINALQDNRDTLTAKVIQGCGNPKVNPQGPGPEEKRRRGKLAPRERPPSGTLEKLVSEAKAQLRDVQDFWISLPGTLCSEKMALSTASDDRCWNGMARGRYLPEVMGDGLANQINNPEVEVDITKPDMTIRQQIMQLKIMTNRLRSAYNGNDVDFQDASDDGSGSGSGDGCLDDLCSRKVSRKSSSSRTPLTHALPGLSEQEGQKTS

B1: anti-Glypican-1 antibody clone K090-02a006 (antibody, mouse IgG2a, kappa, V domains shown)
VH: EVQLQQSGAELVKPGASVKISCRASGYSFTGYNMNWVKQSHGKSLEWIGNINPYYGTTNYNQKFKGKATLTVDKSSSTAYMQLNSLTSEDSAVYYCASDGYYGAMDYWGQGTSVTVSS
VL: DIKMTQSPKFMSTSVGDRVSVTCKASQNVGTYVAWYQQKPGQSPKALIYSASYRYSGVPDRFTGTGSGTDFTLTISNVQSEDLAEYFCQQYYNYPLTFGAGTKLELKR
notes: Selected as scFv on phage
B2: anti-Glypican-1 antibody clone K090-02a002 (antibody, mouse IgG2a, kappa, V domains shown)
VH: EVKLVESGGGLVKPGGSRKLSCAASGFTFSDYGMHWVRQAPEKGLEWVAYISSGSSTIYYADTVKGRFTISRDNAKNTLFLQMTSLRSEDTAMYYCARHSYYSYDVGGDYVMDYWGQGTSVTVSS
VL: DIVMSQSPKFMSTSVGDRVSITCKASQDVGTAVAWYQQKPGQSPKLLIYWASTRHTGVPDRFTGSGSGTDFTLTISNVQSEDLADYFCQQYSSYPLTFGAGTKLEIKR
notes: Selected as scFv on phage
B3: anti-Glypican-1 antibody clone K090-02a010 (antibody, mouse IgG2a, kappa, V domains shown)
VH: EVKLVESGGGLVKPGGSRKLSCAASGFTFSDYGMHWVRQAPEKGLEWVAYINSGSSTIYYADTVKGRFTISRDNAKNTLFLQMTSLRSGDTAMYYCARHSYYSYDVGGDYVMDYWGQGTSVTVSS
VL: DIVLTQSPKFMSTSVGDRVSITCKASQDVGTAVAWYQQKPGQSPKLLIYWASTRHTGVPDRFTGSGSGTDFTLTISNVQSEDLADYFCQQYSSYPLTFGAGTKLEIKR
notes: Selected as scFv on phage
B4: anti-Glypican-1 antibody clone K090-01a042 (antibody, mouse IgG2a, kappa, V domains shown)
VH: QVQLQQPGAELAKPGASVKMSCKASGYTFTRYWMHWVKQRPGQGLEWIGYINPSSGYTEYNQKFKDKATLTADKSSSTAYMQLSSLTSEDSAVYYCVRLGDYSYYFDYWGQGTTLTVSS
VL: DVVMTQTPLSLPVSLGDQASISCRSSQSIVHSNGNTYLEWYLQKPGQSPKLLIYKVSNRFSGVPDRFSGSGSGTDFTLKISRVEAEDLGVYYCFQGSHVPWTFGGGTKLELKR
notes: Selected as scFv on phage
B5: anti-Glypican-1 antibody clone K090-01a007 (antibody, mouse IgG2a, kappa, V domains shown)
VH: QVHLQQSGAELVKPGASVKLSCKASGYTFTSYWMHWVKQRPGQGLEWIGNIDPYDSETHYNQKFKDKATLTVDKSSSTAYMQLSSLTSEDSAVYYCARDSNWGYFDYWGQGTTLTVSS
VL: DVVMTQTPLSLPVSLGDQASISCRSSQSLVHSNGNTYLHWYLQKPGQSPKLLIYKVSNRFSGVPDRFSGSGSGTDFTLKISRVEAEDLGVYFCSQSTHVPWTFGGGTKLELKR
notes: Selected as scFv on phage
B6: anti-Glypican-1 antibody clone K090-01a033 (antibody, mouse IgG2a, kappa, V domains shown)
VH: QVQLKQSGPELVKPGASVKISCKASGYSFTGYYMHWVKQSPEKSLEWIGEINPSTGDTTYNQKFKAKATLTVDKSSSTAYMQLKSLTSEDSAVYYCAREKRDDGVFAYWGQGTLVTVSS
VL: DIVMSQSPKSMSMSVGERVALSCKASENVGTYVSWYQQKPEQSPKLLIYGASNRYTGVPDRFTGSGSATDFTLTISSVQAEDLADYYCGQSYSYPLTFGAGTKLELKR
notes: Selected as scFv on phage; also called clone 01a033; anti-GPC1 monoclonal antibody (01a033)
B7: anti-Glypican-1 antibody clone K090-01a002 (antibody, mouse IgG2a, kappa, V domains shown)
VH: EVQLQQSGPELVKPGASVKISCKSSGYSFTRYYMHWVKHSPEKSLEWIGEINPSTGDTTYNQKFKAKATLTVDKSSSTAYMQLKSLTSEDSAVYYCAREKRDDGVLAYWGQGTLVTVSS
VL: DIQMTQSPKFLPVSAGDRVTMTCKASQSVGNNVAWYQQKPGQSPKLLIYYASNRYTGVPDRFTGSGSGTDFTFTISSVQVEDLAVYFCQQHYSSPLTFGAGTKLELKR
notes: Selected as scFv on phage
B8: anti-Glypican-1 antibody clone K090-01a021 (antibody, mouse IgG2a, kappa, V domains shown)
VH: QVQLKQSGPELVKPGASVKISCKASGYSFTGYYMHWVKQSPEKSLEWIGEINPSTGGTTYNQKFKAKATLTVDKSSSTAYMQLKSLTSEDSAVYYCAREKRDDGVFAYWGQGTLVTVSS
VL: SIVMTQTPKFLPVSAGDRVTMTCKASQSVGNNVAWYQQKPGQSPKLLIYYASNRYTGVPDRFTGSGSGTDFPFTISSVQVEDLAVYFCQQHYSSPLTFGAGTKLELKR
notes: Selected as scFv on phage
B9: anti-Glypican-1 antibody clone K090-01a009 (antibody, mouse IgG2a, kappa, V domains shown)
VH: EVQLQQSGPELVKPGASVEISCKASGYSFTGYFMNWVKQSQGKSLEWIGRINPDNGDIFYNQKFKGKATLTVDKSSSTAHMELRSLTSEDSAVYYCARSWNWYFDVWGAGTTVTVSS
VL: DIQMTQSPASLSASVGETVTITCRASENIYSYLAWYQQKQGKSPQLLVYNAKTLAEGVPSRFSGSGSGTQFSLKINSLQPEDFGSYYCQHHYGTPYTFGSGTKLEIKR
notes: Selected as scFv on phage
B10: anti-Glypican-1 antibody clone K090-02a022 (antibody, mouse IgG2a, kappa, V domains shown)
VH: QVQLQQPGPELVKPGASVKMSCKASGYTFTDYYMNWVKQSHGKSLEWIGRVNPSNGGTSYNQKFKGKATLTVDKSLSTAYMQLNSLTSEDSAVYYCARSGENYYAMDYWGQGTSVTVSS
VL: DIQMTQSPASLSASVGETVTITCRASENIYSYLAWYQQKQGKSPQLLVYNGKTLAEGVSSRFSGSGSGTQFSLKINSLQPEDFGSYYCQNHYGVPWTFGGGTKLEIKR
notes: Selected as scFv on phage
B11: anti-Glypican-1 antibody clone K090-01a016 (antibody, mouse IgG2a, kappa, V domains shown)
VH: QVHLQQSGPELVKPGASVKISCKASGYTFTDYYINWVKQKPGQGLEWIGYIDPYNDGSKYNEKFKGKATLTSDKSSSTAYMELSSLTSEDSAVYYCARTPYYSFYSYGFYFDYWGQGTTLTVSS
VL: DIVLTQSPASLAVSLGQRATISCRASKSVSTSSYSYMHWYQQKPGQPPKLLIKYASYLESGVPARFSGSGSGTDFTLNIHPVEEEDAATYYCQHSREFPLTFGAGTKLELKR
notes: Selected as scFv on phage
B12: anti-Glypican-1 antibody clone K090-02a014 (antibody, mouse IgG2a, kappa, V domains shown)
VH: EVQLQQSGPELVKPGASVKISCKASGYSFTGYYIHWVKQSPEKSLEWIGEINPSTGDITYNQKFKAKATLTVDKSSSTAYMQLKSLTSDDSAVYYCARERNYDRFAYWGQGTLVTVSS
VL: SIVMTQTPALMAASPGEKVTITCSVSSSISSSNLHWYQQKSETSPKPWIYGTSNLASGVPVRFSGSGSGTSYSLTISSMEAEDAATYYCQQWSSYPLTFGAGTKLEIKR
notes: Selected as scFv on phage
B13: anti-Glypican-1 antibody clone K090-02a034 (antibody, mouse IgG2a, kappa, V domains shown)
VH: EVQLQQSGPELVKPGASVKISCKASGYSFTGYYMHWVKQSPEKSLEWIGEINPSTGDTTYNQKFKAKATLTVDKSSSTAYIQLKSLTSEDSAVYYCARERNYDRFAYWGQGTLVTVSS
VL: QIVLSQSPAIMSASPGEKVTMTCSASSSVSYMYWYQQKPGSSPRLLIYDTSNLASGVPVRFSGSGSGTSYSLTISRMEAEDAATYYCQQWSSYPLTFGAGTKLELKR
notes: Selected as scFv on phage
B14: anti-Glypican-1 antibody clone K090-02a035 (antibody, mouse IgG2a, kappa, V domains shown)
VH: QVQLQQSGAELVKPGASVKLSCKTSGYTFTSYWMHWVKQRPGQGLEWIGNIDPSDSETHYNQKFKDKATLTVDKSSSTAYMQLSGLTSEDSAVYYCARNLGYWGQGTSVTVSS
VL: DIKMTQSPLSLPVSLGDQASISCRSSQSLVHSNGNTYLHWYLQKPGQSPKLLIYKVSNRFSGVPDRFSGSGSGTDFTLKISRVEAEDLGVYFCSQSTHVPYTFGGGTKLEIKR
notes: Selected as scFv on phage
B15: anti-Glypican-1 antibody clone K090-01a030 (antibody, mouse IgG2a, kappa, V domains shown)
VH: QVQLQQSGAELVRPGTSVKMSCKAAGYTFTNYWIGWVKQRPGHGLEWIGDIYPGGGYTHYNEKFKGKATLTADTSSSTAYMQLSSLTSEDSAIYYCARERVYYDGSRYFDVWGAGTTVTVSS
VL: DIKMTQSPKFLPVSAGDRVTMTCKASQSVGNNVAWYQQKPGQSPKLLIYYASNRYTGVPDRFTGSGSGTDFTFTISSVQVEDLAVYFCQQHYSSPWTFGGGTKLEIKR
notes: Selected as scFv on phage
B16: anti-Glypican-1 antibody clone K090-01a017 (antibody, mouse IgG2a, kappa, V domains shown)
VH: EVQLQQSGGELVRPGTSVKMSCKAAGYTFTNYWIGWVKQRPGHGLEWIGDLYPGGGYTHYNEKFKGKATLTADTSSSTAYMQLSSLTSEDSAIYYCARERVYFDGSRYFDVWGAGTTVTVSS
VL: SIVMTQTPKFLPVSAGDRVTMTCKASQSVGNNVAWYQQKPGQSPKLLIYYASNRYTGVPDRFTGSGSGTDFTFTISSVQVEDLAVYFCQQHYSSPWTFGGGTKLEIKR
notes: Selected as scFv on phage
B17: anti-Glypican-1 antibody clone K090-01a026 (antibody, mouse IgG2a, kappa, V domains shown)
VH: QVHLQQSGAELVRPGTSVKMSCKAAGYTFTNYWIGWVKQRPGHGLEWIGDIYPGGGYTHYNEKFKGKATLTADTSSSTAYMQLSSLTSEDSAIYYCARERVYYDGSRFFDVWGAGTTVTVSS
VL: DIVMSQSPKFLPVSAGDRVTMTCKASQSVGNNVAWYQQKPGQSPKLLIYYASNRYTGVPDRFTGSGSGTDFTFTISSVQVEDLAVYFCQQHYSSPWTFGGGTKLEIKR
notes: Selected as scFv on phage

For one test, the target named is T1, human Glypican-1. Description: phage scFv panning, ELISA on immobilised human GPC1, cell-ELISA and flow cytometry on human GPC1 transformants and TE14 (Example 1).
B1: the binding result was “binds”. Still for that read-out and setting: the value for B2 was “binds”; that for B3 was “binds”. On the same count and under the same terms, the value for B4 was “binds”; that for B5 was “binds”; that for B6 was “binds”. Still for that read-out and setting: the value for B7 was “binds”; that for B8 was “binds”; that for B9 was “binds”. As for B10, the binding result is listed as “binds”. Same read-out and setting: under B11 stands “binds”.

As for B12, the binding result is reported as “binds”. Same read-out and setting: under B13 stands “binds”; under B14, “binds”; under B15, “binds”.

Consider B16, for which the binding result is listed as “binds”.

As to B17, the binding result is recorded as “binds”.

The target in a further test is T2, recombinant human Glypican-1 protein …. Description: ELISA on plate-coated recombinant human GPC1.
On to B6, for which the binding result is “binds”.
